From patent publication US20220275043A1 come the findings set out here.

The target of test [1] is single-chain SIINFEKL-H2Kb expressed on K562 cells (mouse). Briefly: flow cytometry, purified OT1-TCR-Igg at 20 nM on K562 cells expressing single-chain SIINFEKL-H2Kb.
Test [2] shares this target. Briefly: flow cytometry dot plot (APC-A against Pacific Blue-A) of K562 cells expressing single-chain SIINFEKL-H2Kb, stained with raw supernatant; number printed in the gate 'TCR-Igg pos stain' (same gate in the Negative ctl panel: 1.15). Background: A flow cytometer gives signals particle by particle.

Regarding “OT1-TCR-Igg (OTI TCRα-LZL-mIgG HC + OTI TCRβ-LZR-mIgG LC, two separate plasmids)”, the percent of cells stained at 20 nM in test [1] amounted to 100%. Further, the TCR-Igg pos stain in test [2] came out at 39.3.
